Measured values as given in US20180371033A1, “THERAPEUTIC PEPTIDES AND METHODS OF USE THEREOF” (priority 2015, published 2018).

Columns and labels:
[1] = for Blood (densitometric signal in the heart blood) / Brain (percentage of signal in that tissue compared to the signal detected in the heart blood): 14C-radiolabeled peptide, tail vein injection, kidneys ligated, target three hours circulation
Description: This example illustrates the dosing of peptide. […] The experiment was done in duplicates.
A target dosage of 20 nmol of each peptide was administered to separate flank sarcoma A204 tumor bearing Female Harlan athymic nude mice while anesthetized. The dosage was adjusted for whole body autoradiography. […] Some animals died after receiving the peptides, possibly due to complications of the anesthesia and surgical procedure used to ligate the kidneys of each mice, or due to toxic effects of some peptides. The circulation time of each peptide varied from animal-to-animal. […] Inulin was used as a negative control, as this polysaccharide is known to not cross the BBB.
At the end of the dosing period, mice were frozen in a hexane/dry ice bath and then frozen in a block of carboxymethylcellulose. Thin, frozen sections of whole animal sagittal slices that include the brain, tumor, liver, kidney, lung, heart, spleen, pancreas, muscle, adipose, gall bladder, upper gastrointestinal track, lower gastrointestinal track, bone, bone marrow, reproductive track, eye, cartilage, stomach, skin, spinal cord, bladder, salivary gland, and other types of tissues were obtained with a microtome, allowed to dessicate in a freezer, and exposed to phosphoimager plates for about ten days.
These plates were developed, and the signal (densitometry) from each organ was normalized to the signal found in the heart blood of each animal. A signal in tissue darker than the signal expected from blood in that tissue indicates accumulation in a region, tissue, structure or cell. Fluoxetine can cross the blood brain barrier, and is a positive control. Inulin cannot cross the blood brain barrier, and is a negative control. FIG. 2 illustrates ^14C signal in the brain and other tissues for the fluoxetine (top) and inulin (bottom) control groups.
Furthermore, the brain contains approximately 3% blood. Thus when comparing the radioactivity signal per area in blood to that in the brain, a signal in the brain that is much higher than 3% of the signal in blood can be attributed to accumulation of the material in the brain through the BBB. A ratio of at least 10% diffuse signal in brain versus blood was chosen as a reference level for high penetration. The densitometric signal can also indicate high concentration within specification locations in the brain, which can indicate crossing the BBB and/or the blood CSF barrier. […] Numbers for blood indicate the densitometric signal in the heart blood. Numbers for the brain indicate the percentage of signal in that tissue compared to the signal detected in the heart blood.

[2] = assay type: in vivo, mice; details: 14C whole body autoradiography
Source text: This example describes biodistribution of peptides.
ND indicates the peptide was not detected in that tissue.

[3] = Brain section autoradiography: peptide homing to ventricles and cerebral spinal fluid; assay type: in vivo, Female Harlan athymic nude mice; details: 14C signal in sagittal/coronal brain sections, 3 hours after administration
Source text: The experiment was done in duplicates.

GSGVPINVKCRGSRDCLDPCKKAGMRFGKCINSKCHCTP [SEQ ID NO: 34]
Blood (densitometric signal in the heart blood) [1]: 6552245640
Brain (percentage of signal in that tissue compared to the signal detected in the heart blood) [1]: 9.30%
penetration of the blood brain barrier in comparison with the negative controls ([1]; reference level for high penetration: at least 10% diffuse signal in brain versus blood): highly penetrate the blood brain barrier
Adipose (percentage of signal compared to blood in the heart) [2]: 11.69%
Gall bladder (percentage of signal compared to blood in the heart) [2]: 35.52%
Liver (percentage of signal compared to heart blood) [2]: 82.37%
Lower GI (percentage of signal compared to blood in the heart) [2]: 20.73%
Lung (percentage of signal compared to heart blood) [2]: 118.19%
Muscle (percentage of signal compared to blood in the heart) [2]: 34.13%
Pancreas (percentage of signal compared to blood in the heart) [2]: 30.35%
Reproductive (tract; percentage of signal compared to heart blood) [2]: 229.69%
Salivary gland (percentage of signal compared to heart blood) [2]: 57.57%
Spleen (percentage of signal compared to blood in the heart) [2]: 54.28%
Upper GI (percentage of signal compared to blood in the heart) [2]: 216.32%
localization of the peptide to specific structures in the brain [3]: specific structures in the brain, such as ventricles and CSF

Inulin [reference compound]
Blood (densitometric signal in the heart blood) [1]: 900918901.9
Brain (percentage of signal in that tissue compared to the signal detected in the heart blood) [1]: 3.00%
Adipose (percentage of signal compared to blood in the heart) [2]: 5.98%
Gall bladder (percentage of signal compared to blood in the heart) [2]: 18.65%
Liver (percentage of signal compared to heart blood) [2]: 126.76%
Lower GI (percentage of signal compared to blood in the heart) [2]: 10.92%
Lung (percentage of signal compared to heart blood) [2]: 242.98%
Muscle (percentage of signal compared to blood in the heart) [2]: 19.80%
Reproductive (tract; percentage of signal compared to heart blood) [2]: 129.37%
Salivary gland (percentage of signal compared to heart blood) [2]: 27.58%
Upper GI (percentage of signal compared to blood in the heart) [2]: 382.27%
